Assays:
Assay in all cases: ITC
[1] = target: Jun bZIP K268A;Fos bZIP R146A (human;human, UniProt P05412;P01100 252-315;137-200, K268A|R146A)
[2] = target: Jun bZIP K268A;Fos bZIP K148A (human;human, UniProt P05412;P01100 252-315;137-200, K268A|K148A)
[3] = target: Jun bZIP K268A;Fos bZIP R157A (human;human, UniProt P05412;P01100 252-315;137-200, K268A|R157A)
[4] = target: Jun bZIP R263A;Fos bZIP R155A (human;human, UniProt P05412;P01100 252-315;137-200, R263A|R155A)
[5] = target: Jun bZIP R263A;Fos bZIP K153A (human;human, UniProt P05412;P01100 252-315;137-200, R263A|K153A)
Jun bZIP R263A;Fos bZIP K153A, sequence (P05412 252-315 R263A, chain 1 of 2): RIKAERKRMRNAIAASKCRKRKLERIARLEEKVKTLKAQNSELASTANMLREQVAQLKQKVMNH
Jun bZIP R263A;Fos bZIP K153A, sequence (P01100 137-200 K153A, chain 2 of 2): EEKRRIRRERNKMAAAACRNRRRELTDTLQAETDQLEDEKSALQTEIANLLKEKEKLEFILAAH

Jun bZIP R263A;Fos bZIP R155A, sequence (P05412 252-315 R263A, chain 1 of 2): as the sequence (P05412 252-315 R263A, chain 1 of 2) above
Jun bZIP R263A;Fos bZIP R155A, sequence (P01100 137-200 R155A, chain 2 of 2): as the sequence (P01100 137-200 K153A, chain 2 of 2) above, with A17K, R19A counted along it
Jun bZIP K268A;Fos bZIP R146A, sequence (P05412 252-315 K268A, chain 1 of 2): as the sequence (P05412 252-315 R263A, chain 1 of 2) above, with A12R, K17A counted along it
Jun bZIP K268A;Fos bZIP R146A, sequence (P01100 137-200 R146A, chain 2 of 2): as the sequence (P01100 137-200 K153A, chain 2 of 2) above, with R10A, A17K counted along it
Jun bZIP K268A;Fos bZIP R157A, sequence (P05412 252-315 K268A, chain 1 of 2): as the sequence (P05412 252-315 R263A, chain 1 of 2) above, with A12R, K17A counted along it
Jun bZIP K268A;Fos bZIP R157A, sequence (P01100 137-200 R157A, chain 2 of 2): as the sequence (P01100 137-200 K153A, chain 2 of 2) above, with A17K, R21A counted along it
Jun bZIP K268A;Fos bZIP K148A, sequence (P05412 252-315 K268A, chain 1 of 2): as the sequence (P05412 252-315 R263A, chain 1 of 2) above, with A12R, K17A counted along it
Jun bZIP K268A;Fos bZIP K148A, sequence (P01100 137-200 K148A, chain 2 of 2): as the sequence (P01100 137-200 K153A, chain 2 of 2) above, with K12A, A17K counted along it

B1: TRE duplex 15-mer (dsDNA)
DNA 1: CGCGTGACTCACCCC
DNA 2: GGGGTGAGTCACGCG
Kd [1]: 0.42 ± 0.02 µM | Kd [2]: 0.46 ± 0.02 µM | Kd [3]: 0.6 ± 0.03 µM | Kd [4]: 3.88 ± 0.09 µM | Kd [5]: 1.15 ± 0.08 µM

From publication PMC3154423
